In patent publication US20110300561:

Tests used:
Arg-Ile = target: T1, Arg-Ile
T1 chain: RI

His-Leu = target: T2, His-Leu
T2 chain: HL

Ala-Ser = target: T3, Ala-Ser
T3 chain: AS

Gly-Ser = target: T4, Gly-Ser
T4 chain: GS

Lys-Leu = target: T5, Lys-Leu
T5 chain: KL

Phe-Val = target: T6, Phe-Val
T6 chain: FV

Lys-Phe = target: T7, Lys-Phe
T7 chain: KF

Gly-Lys = target: T8, Gly-Lys
T8 chain: GK

Asp-Lys = target: T9, Asp-Lys
T9 chain: DK

Arg-Leu = target: T10, Arg-Leu
T10 chain: RL

Arg-Ala = target: T11, Arg-Ala
T11 chain: RA

Ser-His = target: T12, Ser-His
T12 chain: SH

Arg-Val = target: T13, Arg-Val
T13 chain: RV

B1: Staphylococcus aureus N-Succinyl-L,L-DAP Desuccinylase (DapE) (protein)
chain: MWKEKVQQYEDQIINDLKGLLAIESVRDDAKASEDAPVGPGPRKALDYMYEIAHRDGFTTHDVDHIAGRIEAGKGNDVLGILCHVDVVPAGDGWDSNPFEPVVTEDAIIARGTLDDKGPTIAAYYAIKILEDMNVDWKKRIHMIIGTDEESDWKCTDRYFKTEEMPTLGFAPDAEFPCIHGEKGITTFDLVQNKLTEDQDEPDYELITFKSGERYNMVPDHAEARVLVKENMTDVIQDFEYFLEQNHLQGDSTVDSGILVLTVEGKAVHGMDPSIGVNAGLYLLKFLASLNLDNNAQAFVAFSNRYLFNSDFGEKMGMKFHTDVMGDVTTNIGVITYDNENAGLFGINLRYPEGFEFEKAMDRFANEIQQYGFEVKLGKVQPPHYVDKNDPFVQKLVTAYRNQTNDMTEPYTIGGGTYARNLDKGVAFGAMFSDSEDLMHQKNEYITKKQLFNATSIYLEAIYSLCVEE
- Activity (S. aureus DapE Qualitative Dipeptidase Activity, TLC assay) (Arg-Ile): +++
- Activity (S. aureus DapE Qualitative Dipeptidase Activity, TLC assay) (His-Leu): +
- Activity (S. aureus DapE Qualitative Dipeptidase Activity, TLC assay) (Ala-Ser): +
- Activity (S. aureus DapE Qualitative Dipeptidase Activity, TLC assay) (Gly-Ser): +
- Activity (S. aureus DapE Qualitative Dipeptidase Activity, TLC assay) (Lys-Leu): ++
- Activity (S. aureus DapE Qualitative Dipeptidase Activity, TLC assay) (Phe-Val): +++
- Activity (S. aureus DapE Qualitative Dipeptidase Activity, TLC assay) (Lys-Phe): ++
- Activity (S. aureus DapE Qualitative Dipeptidase Activity, TLC assay) (Gly-Lys): +
- Activity (S. aureus DapE Qualitative Dipeptidase Activity, TLC assay) (Asp-Lys): +
- Activity (S. aureus DapE Qualitative Dipeptidase Activity, TLC assay) (Arg-Leu): +++
- Activity (S. aureus DapE Qualitative Dipeptidase Activity, TLC assay) (Arg-Ala): +++
- Activity (S. aureus DapE Qualitative Dipeptidase Activity, TLC assay) (Ser-His): ++
- Activity (S. aureus DapE Qualitative Dipeptidase Activity, TLC assay) (Arg-Val): +++
